Values of other authors, collected in paper PMC7302117.

Target: ELK1 (Homo sapiens) (UniProt P19419)
UniProt P19419, sequence (P19419 whole entry): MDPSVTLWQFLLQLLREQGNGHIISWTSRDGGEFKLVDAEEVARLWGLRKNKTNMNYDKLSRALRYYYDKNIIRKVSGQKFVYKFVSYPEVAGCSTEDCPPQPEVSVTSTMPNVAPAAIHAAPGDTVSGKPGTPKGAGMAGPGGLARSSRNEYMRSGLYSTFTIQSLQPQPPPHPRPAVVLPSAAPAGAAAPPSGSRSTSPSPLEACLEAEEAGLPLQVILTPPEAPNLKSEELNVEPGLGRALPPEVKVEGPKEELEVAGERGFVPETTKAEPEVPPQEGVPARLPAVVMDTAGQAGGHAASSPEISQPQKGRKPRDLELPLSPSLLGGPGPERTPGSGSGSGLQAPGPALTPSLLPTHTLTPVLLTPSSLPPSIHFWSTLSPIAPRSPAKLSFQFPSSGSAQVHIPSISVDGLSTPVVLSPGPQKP

Kd: 20 nM
Substance: Androgen receptor A/B domain (from UniProt P10275)
